Measurements from article PMC7331820, “Identification of the amino acid position controlling the different enzymatic activities in walnut tyrosinase isoenzymes (jrPPO1 and jrPPO2)” (Scientific Reports, 2020).
One block for each molecule: values may come before it.

Legend:
Assay in all cases: photometric initial rates, Michaelis-Menten fit
[1] = target: T1, jrPPO2 (Juglans regia, UniProt A0A2I4DDQ0, D361N/F398L/S401P/D582N); type: biochemical; settings: pH 6.0, 50 mM sodium phosphate, 2.5 mM SDS as activator, 25 °C
T1 construct: gene LOC108979139; latent enzyme (active domain plus C-terminal domain, no transit peptide), E. coli, pGEX-6P-1, N-terminal GST tag (absent by mass)
Text: (§1) photometric initial rates, Michaelis-Menten fit on jrPPO2

[2] = target: T2, jrPPO1 (Juglans regia, UniProt C0LU17); type: biochemical; settings: pH 6.0, 50 mM sodium phosphate, 2.0 mM SDS as activator, 25 °C
T2 construct: gene PPO1; latent enzyme (active domain plus C-terminal domain, no transit peptide), expressed in E. coli from pGEX-6P-1 with N-terminal GST tag (tag absent by mass)
T2 sequence (C0LU17 entry or part of it): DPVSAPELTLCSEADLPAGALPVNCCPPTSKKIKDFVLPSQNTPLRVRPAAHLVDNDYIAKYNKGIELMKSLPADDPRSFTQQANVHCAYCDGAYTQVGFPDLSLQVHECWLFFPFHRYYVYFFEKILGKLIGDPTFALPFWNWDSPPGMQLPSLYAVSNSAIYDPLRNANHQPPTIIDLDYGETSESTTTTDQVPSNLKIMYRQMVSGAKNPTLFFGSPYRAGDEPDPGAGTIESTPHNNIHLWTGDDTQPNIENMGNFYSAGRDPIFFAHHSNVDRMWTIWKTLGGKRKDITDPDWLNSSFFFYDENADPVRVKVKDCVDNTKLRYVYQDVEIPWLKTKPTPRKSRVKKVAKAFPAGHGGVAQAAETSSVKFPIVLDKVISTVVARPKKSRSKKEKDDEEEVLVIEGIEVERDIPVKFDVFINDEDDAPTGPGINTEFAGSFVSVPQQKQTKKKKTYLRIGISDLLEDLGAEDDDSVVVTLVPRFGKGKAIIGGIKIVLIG
Text: (§2) photometric initial rates, Michaelis-Menten fit on jrPPO1

[3] = substrate: NCCc1ccc(O)c(O)c1; type: biochemical, Juglans regia; settings: pH 6.0, 50 mM sodium phosphate, 2.0 mM SDS as activator, 25 °C
Text: as §2

[4] = substrate: NCCc1ccc(O)cc1; type: biochemical, Juglans regia; settings: pH 6.0, 50 mM sodium phosphate, 2.5 mM SDS as activator, 25 °C
Text: as §1

[5] = substrate: O=C1c2c(O)cc(O)cc2O[C@H](c2ccc(O)c(O)c2)[C@H]1O; type: biochemical, Juglans regia; settings: pH 6.0, 50 mM sodium phosphate, 2.5 mM SDS as activator, 10% DMSO, 25 °C
Text: as §1

[6] = substrate: O=C(O)/C=C/c1ccc(O)cc1; type: biochemical, Juglans regia; settings: pH 6.0, 50 mM sodium phosphate, 2.5 mM SDS as activator, 25 °C
Text: as §1

[7] = substrate: O=C(O)Cc1ccc(O)cc1; type: biochemical, Juglans regia; settings: pH 6.0, 50 mM sodium phosphate, 2.5 mM SDS as activator, 25 °C
Text: as §1

[8] = substrate: NCCc1ccc(O)c(O)c1; type: biochemical, Juglans regia; settings: pH 6.0, 50 mM sodium phosphate, 2.5 mM SDS as activator, 25 °C
Text: as §1

[9] = substrate: O=C(O)c1ccc(O)c(O)c1; type: biochemical, Juglans regia; settings: pH 6.0, 50 mM sodium phosphate, 2.5 mM SDS as activator, 25 °C
Text: as §1

[10] = substrate: CCOC(=O)c1cc(O)c(O)c(O)c1; type: biochemical, Juglans regia; settings: pH 6.0, 50 mM sodium phosphate, 2.5 mM SDS as activator, 25 °C
Text: as §1

[11] = substrate: O=C(O)/C=C/c1ccc(O)c(O)c1; type: biochemical, Juglans regia; settings: pH 6.0, 50 mM sodium phosphate, 2.5 mM SDS as activator, 25 °C
Text: as §1

[12] = substrate: O=C(O)c1cc(O)c(O)c(O)c1; type: biochemical, Juglans regia; settings: pH 6.0, 50 mM sodium phosphate, 2.5 mM SDS as activator, 25 °C
Text: as §1

[13] = substrate: N[C@@H](Cc1ccc(O)c(O)c1)C(=O)O; type: biochemical, Juglans regia; settings: pH 6.0, 50 mM sodium phosphate, 2.5 mM SDS as activator, 25 °C
Text: as §1

Km [1]: 1000 ± 120 µM
Km [2]: 1200 ± 130 µM
Molecule: Oc1cccc(O)c1O [compound 1, Pyrogallol]

B1: jrPPO1 (Juglans regia; N340G) (protein)
chain: DPVSAPELTLCSEADLPAGALPVNCCPPTSKKIKDFVLPSQNTPLRVRPAAHLVDNDYIAKYNKGIELMKSLPADDPRSFTQQANVHCAYCDGAYTQVGFPDLSLQVHECWLFFPFHRYYVYFFEKILGKLIGDPTFALPFWNWDSPPGMQLPSLYAVSNSAIYDPLRNANHQPPTIIDLDYGETSESTTTTDQVPSNLKIMYRQMVSGAKNPTLFFGSPYRAGDEPDPGAGTIESTPHGNIHLWTGDDTQPNIENMGNFYSAGRDPIFFAHHSNVDRMWTIWKTLGGKRKDITDPDWLNSSFFFYDENADPVRVKVKDCVDNTKLRYVYQDVEIPWLKTKPTPRKSRVKKVAKAFPAGHGGVAQAAETSSVKFPIVLDKVISTVVARPKKSRSKKEKDDEEEVLVIEGIEVERDIPVKFDVFINDEDDAPTGPGINTEFAGSFVSVPQQKQTKKKKTYLRIGISDLLEDLGAEDDDSVVVTLVPRFGKGKAIIGGIKIVLIG
notes: latent enzyme (active domain plus C-terminal domain, no transit peptide), expressed in E. coli from pGEX-6P-1 with N-terminal GST tag (tag absent by mass)
Km [3]: 490 ± 70 µM
kcat [3]: 300 ± 16.5 s⁻¹
kcat/Km [3]: 612000 ± 93700 M⁻¹ s⁻¹

B2: jrPPO2 (Juglans regia; D361N/D582N/F398L/S401P) (protein)
chain: APVSAPDITKCGKADFPAGAKPTNCCPPPSTKIIDFKLPTKNSPLRVRPAAHLADKEYIAKYNKAIELMKALPADDPRNFTQQANVHCAYCDGAYEQVGFPNLDLQVHNSWLFFPFHRYYLYFYEKILGKLIGDPTFALPFWNWDAPAGMQLPAMYANPKSSLYDALRNANHQPPTLMDLDYNGTDEETTSQDQLSANLSIMYRQMVSNGKNAKLFLGSAYRAGDEPDPGAGSIENIPHGPVHIWTGDNTQPNLENMGNFYSAGRDPIFFAHHSNVDRMWSIWKTLGGKRTDLTEPDWLNAGFLFYDENGQAVRVKVKDCLDTTKLGYVYQDVDLPWLKSKPTRKSKLKKVAKFFHLGHQGDVAIAAETSPSVNFPIVLDKVISTVVARPRKSRSKKEKEDEEEVLVIGAIEFDRDAPVKFDVFINDEDDSPTTRPDKTEFAGSFVNVPHKHKHGKKMNTCLRLGISDLLEDLDAENDDTIVVTLVPRYGKGLASINGIKIELLD
notes: latent enzyme (active domain plus C-terminal domain, no transit peptide), E. coli, pGEX-6P-1, N-terminal GST tag (absent by mass)
Km [4]: 490 ± 110 µM
kcat [4]: 9.14 ± 0.83 s⁻¹
kcat/Km [4]: 18700 ± 4650 M⁻¹ s⁻¹
Km [5]: 920 ± 150 µM
kcat [5]: 19.6 ± 2.04 s⁻¹
kcat/Km [5]: 21300 ± 4120 M⁻¹ s⁻¹
Km [6]: 940 ± 120 µM
kcat [6]: 0.37 ± 0.02 s⁻¹
kcat/Km [6]: 390 ± 50 M⁻¹ s⁻¹
Km [7]: 4430 ± 550 µM
kcat [7]: 32.3 ± 2.18 s⁻¹
kcat/Km [7]: 7290 ± 1030 M⁻¹ s⁻¹
Km [8]: 790 ± 170 µM
kcat [8]: 186 ± 19.1 s⁻¹
kcat/Km [8]: 235000 ± 56100 M⁻¹ s⁻¹
Km [9]: 90 ± 20 µM
kcat [9]: 9.84 ± 0.52 s⁻¹
kcat/Km [9]: 109000 ± 25000 M⁻¹ s⁻¹
Km [10]: 6600 ± 790 µM
kcat [10]: 59.5 ± 3.89 s⁻¹
kcat/Km [10]: 9020 ± 1220 M⁻¹ s⁻¹
Km [11]: 210 ± 20 µM
kcat [11]: 8.37 ± 0.2 s⁻¹
kcat/Km [11]: 39900 ± 3910 M⁻¹ s⁻¹
Km [12]: 180 ± 40 µM
kcat [12]: 2.07 ± 0.18 s⁻¹
kcat/Km [12]: 11500 ± 2740 M⁻¹ s⁻¹
Km [13]: 5660 ± 700 µM
kcat [13]: 132 ± 7.05 s⁻¹
kcat/Km [13]: 23300 ± 3140 M⁻¹ s⁻¹

B3: jrPPO2 (Juglans regia; D361N/D582N/F398L/G345N/S401P) (protein)
chain: APVSAPDITKCGKADFPAGAKPTNCCPPPSTKIIDFKLPTKNSPLRVRPAAHLADKEYIAKYNKAIELMKALPADDPRNFTQQANVHCAYCDGAYEQVGFPNLDLQVHNSWLFFPFHRYYLYFYEKILGKLIGDPTFALPFWNWDAPAGMQLPAMYANPKSSLYDALRNANHQPPTLMDLDYNGTDEETTSQDQLSANLSIMYRQMVSNGKNAKLFLGSAYRAGDEPDPGAGSIENIPHNPVHIWTGDNTQPNLENMGNFYSAGRDPIFFAHHSNVDRMWSIWKTLGGKRTDLTEPDWLNAGFLFYDENGQAVRVKVKDCLDTTKLGYVYQDVDLPWLKSKPTRKSKLKKVAKFFHLGHQGDVAIAAETSPSVNFPIVLDKVISTVVARPRKSRSKKEKEDEEEVLVIGAIEFDRDAPVKFDVFINDEDDSPTTRPDKTEFAGSFVNVPHKHKHGKKMNTCLRLGISDLLEDLDAENDDTIVVTLVPRYGKGLASINGIKIELLD
notes: as for B2
Km [4]: 210 ± 60 µM
kcat [4]: 10.9 ± 0.71 s⁻¹
kcat/Km [4]: 51900 ± 15300 M⁻¹ s⁻¹
